Source: the RNAGym collection of RNA variant scans (doi:10.1073/pnas.2313332121)

B1: TPR t1 (parent)
chain: GACCAAUCUGCCCUCAGAGCUCGAGAACAUCUUCGGAUGCAGAGGAGGCAGGCUUCGGUGGCGCGAUAGCGCCAACGUCCUCAACCUCCAAUGCAUCCCACCACAUGAUGAUGCCUGAAGAGCCUUGGUUUUUUG

Variants of: B1
Experiment: polymerase ribozyme fitness, log enrichment relative to wild type (log ratio); higher = more active; in vitro selection for triplet polymerase activity
In short: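 Mutant libraries of both subunits of a heterodimeric triplet polymerase ribozyme were PCR-built, transcribed, and selected once in triplicate, with frozen incubation at −7 °C and capture of gel-excised extended constructs on streptavidin beads before RT-PCR. Illumina sequencing of input and output libraries was filtered to genotypes with ≥10 input reads and ≥1 read per output. Fitness is the logarithm of genotype enrichment over wild-type enrichment, using inverse-variance-weighted replicate averages. The logarithm is base 2.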

Row | Variant | polymerase ribozyme fitness (log ratio)
1 | G61C A119G | -0.986
2 | G52A U126C | -1.17
3 | G10A A50G C64U C115G | -3.37
4 | G47A C73A | -0.495
5 | C12A G36A G61A U92A C123U | -3.77
6 | C8G A46G C56A A84C C104A C115U A118U A119U | -4.77
7 | U9G U38C A46C U59C A66U U81A | -5.6
8 | U55C C56U U78C G93A C101A | -1.12
9 | U9A G48U C64U C72A | 0.0767
10 | G63A U78C G93A G122A | -2.28
11 | C40A G63A C79A C86A C104A C114U | -7.08
12 | G42U A68C G107C C114U G128C U133G | -6.38
13 | C86G U92C | -2.6
14 | C40A C80G U109A U133A | -7.59
15 | G42C U78A C85U C123G G135U | -2.89
16 | G47A | -0.989
17 | C11G A50G C62U G110C | -4.81
18 | A43U U92A U106A | -2.69
19 | A29G C56G C62A | -4.43
20 | C62U C115G | -2.51
21 | C82A G93A A100C C123U U125A | -1
22 | C3U G63C G110A | -2.26
23 | C56G G71U G120A G127A | -4.03
24 | A29U U81A C82A U87G U112A | -1.91

Row | Variant | polymerase ribozyme fitness (log ratio)
25 | G47U G60A C86A C89U | -0.955
26 | U21A A90C | -1.58
27 | C20A C22U C49A U92A C115U | -7.22
28 | C8A C20U A37G | -0.63
29 | C97U U109A | -2.09
30 | C13U C62G | -0.959
31 | C4U C20U U59G C89G U112A U125A U131C | -2.82
32 | G60A G61C U92C G113A | -3.6
33 | A18G U112A | -0.0704
34 | C49U U129A | -1.47
35 | G42A C73G C79A U130A | -5.42
36 | C13G C72G C123U G135U | -0.121
37 | U38A G69C | -2.61
38 | A16G A37G | -1.71
39 | C3G C15A | -5.49
40 | A18U G48U G61U C104U | -2.08
41 | G42C G128U U130A G135U | -4.23
42 | U9A U116C U125A | 0.151
43 | U33C A46G C88U A121U | -6.28
44 | U7C U116C | 0.603
45 | G10A A16U C88A U92C G120U | -1.32
46 | C31U C89U | -5.93
47 | U7G A18G U38G A50C C53U G113U | -2.37
48 | U14C G58U C70U G71U | -3.19

Row | Variant | polymerase ribozyme fitness (log ratio)
49 | A6U C11U G71C | -0.83
50 | A2G A6G C8A A46C U87C | -0.00636
51 | G36U C123G | 0.712
52 | C49A A105C A118G U130A | -3.62
53 | U9C C49U | 0.0306
54 | C34G G45C G69A A90U U92A G113A | -7.28
55 | A6U C13A A16U C49A G63A C101A | -4.21
56 | C49U G52A C56G | -2.31
57 | U9A C11G C15G A91C G93A | -3.49
58 | U81C C82G G113C C115G A118G | -7.41
59 | U33G C34G G52U | -6.73
60 | C4G A46U G47A | -4.4
61 | C53A G61C | -4.19
62 | C70A C123U | -0.0495
63 | C11G G110C | -3.47
64 | U9G G17A A18U A46U C73A A84G U87A U112C G127C U134A | -3.68
65 | A66U C73A C85G | -2.04
66 | G10A U87G G110U | -1.12
67 | C31A A118U | -5.02
68 | C56U U112C A118C | 1.53
69 | G57C G58A A83U C86A G117U C123U | -6.95
70 | C8G C82A A90U U92G G117U G120C | -1.01
71 | C56G G69A | -2.86
72 | C62G C64U | -3.51

Row | Variant | polymerase ribozyme fitness (log ratio)
73 | G61C C99U A111C | -5.26
74 | A5U C13G C89U U92A G120A | -2.77
75 | C8A A18C C34G A43U | -7.06
76 | C80U C94G | -1.73
77 | C12U C49A C73U U92C | -1
78 | G42U C82G C115G | -3.58
79 | A5U G63A U125A | -2.08
80 | G45A C94U | -0.815
81 | C13U A27U | -2.33
82 | C40G G51U U87A A90G G117U | -5.66
83 | C8U U9C G52U U55C | -0.0264
84 | A43G U92A | -2.96
85 | G69U A95U G122A | -0.876
86 | C34A G110U A118U | -6.14
87 | C53U C89A | -1.29
88 | G19A U87A | -2.78
89 | U32C G35U A108G A121G | -7.39
90 | C13U G39A A103U C123U | -4.74
91 | A2U G69U C102U G113A U129A | -0.898
92 | C20U G47A C49G C123A U125G | -2.77
93 | A5G C13U G42U C76A | -2.01
94 | A43G A50G G63C | -3.02
95 | C12A A121G | 1.96
96 | U14A G63U C79U | -3.41

Row | Variant | polymerase ribozyme fitness (log ratio)
97 | C12G C62G C82A | -1.16
98 | C53A C72U C85U G122A | -0.784
99 | U54G U55G C73A C102G G110U G120C | -7.7
100 | A41G G42U C73G C104A | -5.43
101 | G42A A46U G48A A66C A118U | -5.21
102 | C12U G71A U92G U96A | -5.06
103 | G110A U133A | -1.59
104 | G10C C49A G51C G57C C72U | -4.25
105 | C12U C73U A95U A111U | -2.86
106 | A37U A50U G63U G120U U126A U130A | -5.22
107 | G36U G77C A91U | -4.63
108 | C73A C97A | -4.87
109 | U78A G107A | -5.55
110 | C56U G60U | -3.21
111 | A111U U116C | -4.01
112 | G42U G63A | -2.77
113 | U30G G60C U112A G127U U129G | -5.06
114 | C11G A37C | -0.179
115 | C12G C73A | 0.691
116 | U7C G52U C98U C124A | -0.108
117 | G17U G120C | -1.09
118 | C82G C86U C102U U112G | -3.94
119 | G35A C56A | -4.2
120 | G10C U54C G93C C102A | -5.34

Row | Variant | polymerase ribozyme fitness (log ratio)
121 | C13A G52U U55C | -2.87
122 | C56G G93C | -1.86
123 | C11G A50G C97G | -2.97
124 | C13U G110C | -3.69
125 | C12U A46U C53U C79A A83U U130A | -4.07
126 | A91U U112G | -1.73
127 | C20A C73U C97U A121C | -1.59
128 | G36A C86U | -0.488
129 | G42U G69U | -0.0944
130 | C70A | -1.51
131 | A84U C124U | 0.806
132 | G42U G58C U87C | -0.174
133 | G60A G69C C80G G110U G120C | -6.82
134 | A18U G48A U59G G113A G135U | -4.36
135 | A50G C89G | -1.08
136 | C40G G71U A105U | -3.41
137 | C11A A29U U59A C70U G120A | -1.3
138 | C13U U21C G36C A50G C56A | -1.18
139 | C72G C86U U130C | -0.236
140 | G44U C49A A50C G71A | -5.27
141 | A50U U106G | -2.78
142 | C40U C70U | -0.997
143 | U96C G110U | -0.753
144 | C49A G61C G110U U125C | -4.57

Row | Variant | polymerase ribozyme fitness (log ratio)
145 | G17U A29G U55A | -4.06
146 | C72U G113C | -2.1
147 | A41C G45U G69U C124A U126G | -1.04
148 | A46C C80A | -3.23
149 | G45U C72A C114A C123G U133A | -2.6
150 | U87G U96G C99U | -2.81
151 | C15U C73U C85G | -1.89
152 | C49A A74G U116G | -1.13
153 | C12U G93U | -0.871
154 | C56A G135U | -1.7
155 | C49U G52A G71C | -5.43
156 | G69U U78C | 0.191
157 | G69A C98A A121U | -6.1
158 | U96C A118U U129C | -0.593
159 | G69A U78A | -2.94
160 | A16G C62A C97U | -3.6
161 | G42U G47A G69A | -4.71
162 | C28G G63A A84C A121U | -3.21
163 | G61A G93A C104U | 0.015
164 | C13G G69U | -0.536
165 | A2U A50C C56U G57U C62U A91U C124G G127C G128C | -4.5
166 | A6U U109C C124A | -5.26
167 | C11G G19U G36U A41U C53U C56A G93C C114A C124U U130A | -6.06
